In publication PMC10786891, “Massively parallel profiling of RNA-targeting CRISPR-Cas13d” one finds Kd data, which are given here for 13 molecules.

The chains are these.
T1: EsCas13d, nuclease-dead (Eubacterium siraeum, UniProt B0MS50, R295A;H300A;R849A;H854A)
T1 sequence: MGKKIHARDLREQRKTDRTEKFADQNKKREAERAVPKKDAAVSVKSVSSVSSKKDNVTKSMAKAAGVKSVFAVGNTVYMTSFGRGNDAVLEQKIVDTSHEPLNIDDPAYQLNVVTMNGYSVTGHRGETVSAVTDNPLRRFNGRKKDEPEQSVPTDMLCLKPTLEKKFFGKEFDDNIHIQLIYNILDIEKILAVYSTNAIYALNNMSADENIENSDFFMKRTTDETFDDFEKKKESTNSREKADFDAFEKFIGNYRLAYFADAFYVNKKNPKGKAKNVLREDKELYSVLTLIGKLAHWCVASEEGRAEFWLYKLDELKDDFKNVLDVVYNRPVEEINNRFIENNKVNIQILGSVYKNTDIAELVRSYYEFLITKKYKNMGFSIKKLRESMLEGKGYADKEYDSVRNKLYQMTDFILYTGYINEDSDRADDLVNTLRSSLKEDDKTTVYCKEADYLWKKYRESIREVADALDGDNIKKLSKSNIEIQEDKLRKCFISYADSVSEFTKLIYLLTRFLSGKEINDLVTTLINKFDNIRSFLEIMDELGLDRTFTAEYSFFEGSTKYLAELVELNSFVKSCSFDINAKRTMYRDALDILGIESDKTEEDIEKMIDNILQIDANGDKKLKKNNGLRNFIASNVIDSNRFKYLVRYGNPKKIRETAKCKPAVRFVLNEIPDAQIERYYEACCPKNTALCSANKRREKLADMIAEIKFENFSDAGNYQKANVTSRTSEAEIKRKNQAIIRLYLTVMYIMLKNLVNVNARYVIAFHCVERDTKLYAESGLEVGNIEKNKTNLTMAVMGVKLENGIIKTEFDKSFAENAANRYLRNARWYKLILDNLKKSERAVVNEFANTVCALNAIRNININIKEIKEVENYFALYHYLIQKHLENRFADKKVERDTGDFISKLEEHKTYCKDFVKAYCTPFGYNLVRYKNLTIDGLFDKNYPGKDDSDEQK

B1: target 2 MT 5'PFS AGC 3'PFS UUU (mixed)
RNA 1: CACCCGUGCAAAAUUGCAGGGGUCUAAAACCUUCUCCAAAUUGUUUCAUCCU
RNA 2: GGGAAUGGAUCCACAUCUACGAAUUCAGCAGGAUGAAACAAUUUGGAGAAGUUUAGAUCGGAAGAGCACACGU
B2: target 2 MT 5'PFS AUA 3'PFS UCC (mixed)
RNA 1: CACCCGUGCAAAAUUGCAGGGGUCUAAAACCUUCUCCAAAUUGUUUCAUCCU
RNA 2: GGGAAUGGAUCCACAUCUACGAAUUCAUAAGGAUGAAACAAUUUGGAGAAGUCCAGAUCGGAAGAGCACACGU
B3: target 2 MT 5'PFS GUC 3'PFS AUU (mixed)
RNA 1: CACCCGUGCAAAAUUGCAGGGGUCUAAAACCUUCUCCAAAUUGUUUCAUCCU
RNA 2: GGGAAUGGAUCCACAUCUACGAAUUCGUCAGGAUGAAACAAUUUGGAGAAGAUUAGAUCGGAAGAGCACACGU
B4: target 2 MT 5'PFS CGG 3'PFS ACG (mixed)
RNA 1: CACCCGUGCAAAAUUGCAGGGGUCUAAAACCUUCUCCAAAUUGUUUCAUCCU
RNA 2: GGGAAUGGAUCCACAUCUACGAAUUCCGGAGGAUGAAACAAUUUGGAGAAGACGAGAUCGGAAGAGCACACGU
B5: target 2 MT 5'PFS CGG 3'PFS ACU (mixed)
RNA 1: CACCCGUGCAAAAUUGCAGGGGUCUAAAACCUUCUCCAAAUUGUUUCAUCCU
RNA 2: GGGAAUGGAUCCACAUCUACGAAUUCCGGAGGAUGAAACAAUUUGGAGAAGACUAGAUCGGAAGAGCACACGU
B6: target 2 MT 5'PFS AUA 3'PFS UCG (mixed)
RNA 1: CACCCGUGCAAAAUUGCAGGGGUCUAAAACCUUCUCCAAAUUGUUUCAUCCU
RNA 2: GGGAAUGGAUCCACAUCUACGAAUUCAUAAGGAUGAAACAAUUUGGAGAAGUCGAGAUCGGAAGAGCACACGU
B7: target 2 MT 5'PFS UAG 3'PFS CGG (mixed)
RNA 1: CACCCGUGCAAAAUUGCAGGGGUCUAAAACCUUCUCCAAAUUGUUUCAUCCU
RNA 2: GGGAAUGGAUCCACAUCUACGAAUUCUAGAGGAUGAAACAAUUUGGAGAAGCGGAGAUCGGAAGAGCACACGU
B8: target 2 MT 5'PFS UAA 3'PFS CUC (mixed)
RNA 1: CACCCGUGCAAAAUUGCAGGGGUCUAAAACCUUCUCCAAAUUGUUUCAUCCU
RNA 2: GGGAAUGGAUCCACAUCUACGAAUUCUAAAGGAUGAAACAAUUUGGAGAAGCUCAGAUCGGAAGAGCACACGU
B9: target 2 MT 5'PFS AUA 3'PFS UCA (mixed)
RNA 1: CACCCGUGCAAAAUUGCAGGGGUCUAAAACCUUCUCCAAAUUGUUUCAUCCU
RNA 2: GGGAAUGGAUCCACAUCUACGAAUUCAUAAGGAUGAAACAAUUUGGAGAAGUCAAGAUCGGAAGAGCACACGU
B10: target 2 MT 5'PFS GAA 3'PFS UUC (mixed)
RNA 1: CACCCGUGCAAAAUUGCAGGGGUCUAAAACCUUCUCCAAAUUGUUUCAUCCU
RNA 2: GGGAAUGGAUCCACAUCUACGAAUUCGAAAGGAUGAAACAAUUUGGAGAAGUUCAGAUCGGAAGAGCACACGU
B11: target 2 MT 5'PFS UAG 3'PFS CGA (mixed)
RNA 1: CACCCGUGCAAAAUUGCAGGGGUCUAAAACCUUCUCCAAAUUGUUUCAUCCU
RNA 2: GGGAAUGGAUCCACAUCUACGAAUUCUAGAGGAUGAAACAAUUUGGAGAAGCGAAGAUCGGAAGAGCACACGU
B12: target 1 C7U,A18C (mixed)
RNA 1: CACCCGUGCAAAAAUGCAGGGGUCUAAAACUGAGCGGAUAACCUCUCUAUGG
RNA 2: GGGAAUGGAUCCACAUCUACGAAUUCGUACCAUCGAGAGGUUAUUCGCUCACCGAGAUCGGAAGAGCACACGU
B13: target 1 G5A,C7A (mixed)
RNA 1: CACCCGUGCAAAAAUGCAGGGGUCUAAAACUGAGCGGAUAACCUCUCUAUGG
RNA 2: GGGAAUGGAUCCACAUCUACGAAUUCGUACCAUAGAGAGGUUAUACACUCACCGAGAUCGGAAGAGCACACGU

For the data set, the target named is T1, EsCas13d, nuclease-dead. Nature of the data set: crRNA (strand 1, pre-loaded); Mg2+; 40 mM Tris-HCl pH 7.5, 150 mM NaCl, 6 mM MgCl2, 1 mM DTT, 0.1% Tween-20, 0.2 mg/ml BSA; 25 C; 10 min per concentration, then washed. As to conditions: tags: His6-TwinStrep-SUMO cleaved; N-terminal SNAP kept (SNAP-Surface 488); label: 3' end held by stalled T7 RNA polymerase.
The term Kd denotes the concentration at which binding is half-saturated. A lower Kd goes with tighter binding. On to B1, for which the dissociation constant (Kd) came out at 20 ± 4 nM.
With B2 the figure was 15.6 ± 2.1 nM.
In turn, B3 showed a Kd of 11.2 ± 1.3 nM.
Molecule B4 registered a Kd of 4.05 ± 0.24 nM.
To B5 belongs 6.8 ± 1.1 nM.
With B6, the Kd is 20 ± 6 nM.
B7 gave a Kd of 2.89 ± 0.35 nM.
Turning to B8, the dissociation constant (Kd) turned out to be 6.7 ± 0.9 nM.
Molecule B9 returned a dissociation constant (Kd) of 12.3 ± 2.6 nM.
To B10 belongs approximately 70 nM; to B11, 2.55 ± 0.33 nM; to B12, 55 ± 5 nM.
In turn, B13 had a Kd of 10.3 ± 0.6 nM.
